Results on five molecules are retold here after patent publication US20080014143A1 (SANFORD BURNHAM MEDICAL RESEARCH INSTITUTE, published 2008).

Bridge positions count the residues as written; N and C are the ends. Ends that are not written are not given here.

In test [1] the target is purified gC1qR/p32 protein (coated onto microtiter wells) (human) (UniProt Q07021). Briefly: phage binding to purified p32 coated on microtiter wells, plaque assay.
Test [2] shares this target. Briefly: inhibition of phage binding to purified p32 on wells; competitor LyP-1 phage; 20 µg/ml mAb.
The target of test [3] is gC1qR/p32 at the cell surface (C8161 cells transfected with p32 cDNA; MDA-MB-435 and MDA-MB-435 S35 cells; Raji cells) (human) (UniProt Q07021). Briefly: inhibition of LyP-1 phage binding to Raji cells; competitor LyP-1 phage; 40 µg/ml mAb.
Test [4] has as its target T1, endogenous gC1qR/p32 of tumor cells and tissues (extracts of MDA-MB-435 cells, BT549 cells, MDA-MB-435 tumor … (human, UniProt Q07021 74-282)).
T1 construct: mature; 33 kD band in cell extracts; in tumor xenograft extracts an additional 75 kD band was also identified as gC1qR/p32; also called gC1q/p32 receptor; p32/p33/gC1qR/HABP1
T1 sequence (looked up): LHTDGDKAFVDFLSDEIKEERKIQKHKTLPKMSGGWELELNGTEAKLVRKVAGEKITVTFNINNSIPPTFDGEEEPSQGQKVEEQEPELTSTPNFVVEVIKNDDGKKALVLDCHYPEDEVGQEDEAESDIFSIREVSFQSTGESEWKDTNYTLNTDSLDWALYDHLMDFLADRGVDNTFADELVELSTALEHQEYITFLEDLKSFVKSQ
Briefly: pull-down from MDA-MB-435 cell extract with biotinylated peptide on streptavidin beads, anti-p32 immunoblot. An excerpt:
A tumor homing peptide, CREKA (SEQ ID NO: 3), and a peptide CRV which resembles Lyp-1 in its amino acid composition and cyclic structure (SEQ ID NO: 4, […]), were used as negative controls. (a) Left panel: silver staining of Lyp-1 bound proteins. The arrow indicates a specific 33 kD band, which was identified as gC1q/p32R by mass spectrometry. Right panel: immunoblot of total cell extract (Tot lysate) and proteins bound to Lyp-1 and control peptides using a monoclonal antibody against gC1q/p32 receptor. The antibody recognizes a band of 33 kD in the total proteins lysate and in the Lyp-1 pull down. Anti gC1q/p32 receptor reactive bands are not detected in the pull downs from both control peptides. […] The monoclonal antibody against gC1qR/p32 recognized a 75 kD and a 33 kD band only in the Lyp-1 peptide pull down (b-right panel).
A tumor homing peptide, CREKA (SEQ ID NO:3), and a peptide CRV which resembles Lyp-1 in its amino acid composition and cyclic structure (SEQ ID NO:4, […]), were used as negative controls. The Lyp-1 bound proteins were visualized using silver staining and immunobloting. […] The arrow indicates a specific 33 kD band, which was identified as gC1qR/p32 by mass spectrometry. […] The antibody recognizes a band of 33 kD in the total proteins lysate and in the Lyp-1 pull down. Anti gC1qR/p32 reactive bands are not detected in the pull downs from both control peptides.
For orientation: In western blotting, separated proteins are transferred to a membrane and probed.

For test [5], the target named is T2, gC1qR/p32 at the cell surface (C8161 cells transfected with p32 cDNA); MDA-MB-435 and MDA-MB-435 S35 cells; … (human, UniProt Q07021 74-282).
T2 construct: whole, on cells; also called cell surface p32; cell surface gC1qR/p32
T2 sequence (looked up): T1 sequence (looked up)
The test can be described thus: FACS of FITC-peptide on live MDA-MB-435 cells transfected with p32 siRNA or control siRNA. How it is done:
48 hours after transfection, inhibition of p32 expression was checked by immunoblot analysis and immunostaining (upper panels). β-actin was used as a control. (Lower panels) cells transfected with p32 siRNA or control siRNA were incubated for 1 h at 4 °C in the presence of 10 μM FITC conjugated LyP-1 peptide or a control peptide, […] (ARAL, SEQ ID NO: 5), which has same overall charge as LyP-1. Cells incubated in the absence of peptide served as negative control. Down-regulation of p32 expression reduced LyP-1 binding to the cells (left panel), but control peptide fluorescence was unaffected (right panel). A representative experiment out of three is shown. C. […] Insertless phage was used to determine background phage binding. The results are representative of three independent experiments and are expressed as percentage of phage binding (±SD), with binding of LyP-1 phage in the presence of mIgG1 set as 100%.
MDA-MB-435 cells were transiently transfected with gC1qR/p32-specific or control siRNAs. […] The amount of fluorescence in living cells was analyzed by FACS. Cells incubated in the absence of peptide served as FITC negative control.

Regarding “LyP-1 phage (phage displaying the LyP-1 peptide)”, the fold binding over insertless control phage in test [1] is 60 fold. As for “mouse monoclonal anti-gC1qR/p32 antibody 60.11”, in test [2], the percent reduction of LyP-1 phage binding was determined as 90%. Moreover, the percent reduction of LyP-1 binding in test [3] worked out at 50%.

B1: biotinylated CREKA peptide (peptide)
peptide: CREKA
modifications: also: biotinylated, site not given here
notes: Negative control in the pull-down; also called control peptide
For B1, the binding result in test [4] is recorded as “no binding”. On to ARALPSQRSR (also: FITC conjugated, site not given here, Same overall charge as LyP-1) [FITC conjugated control peptide ARALPSQRSR], for which, in test [5], the binding result was “no binding (tested: 10 µM)”.

B2: biotinylated CRV peptide (CRVRTRSGC) (peptide)
peptide: CRVRTRSGC
modifications: disulfide 1-9 (inferred); also: biotinylated, site not given here
notes: as for B1
B2: the binding result in test [4] is on record as “no binding”.
